Data reported in PMC13398683.

Target: Endothelin Receptor Type B (human (endogenous in LGG275 and other patient-derived glioma lines)) (UniProt P24530)
Sequence of UniProt P24530 (P24530 27-442): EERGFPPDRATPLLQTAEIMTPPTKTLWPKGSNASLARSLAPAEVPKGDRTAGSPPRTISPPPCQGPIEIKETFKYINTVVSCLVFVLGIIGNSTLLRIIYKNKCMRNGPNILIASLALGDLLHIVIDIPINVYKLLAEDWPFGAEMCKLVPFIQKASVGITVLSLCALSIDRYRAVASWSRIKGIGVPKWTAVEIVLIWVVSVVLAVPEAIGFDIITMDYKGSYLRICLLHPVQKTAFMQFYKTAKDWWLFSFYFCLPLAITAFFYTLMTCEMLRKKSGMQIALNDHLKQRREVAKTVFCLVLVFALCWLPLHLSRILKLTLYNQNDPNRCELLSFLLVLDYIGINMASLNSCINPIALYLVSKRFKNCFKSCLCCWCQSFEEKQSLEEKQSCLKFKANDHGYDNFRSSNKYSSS

CTCFTYKDKECVYYCHLDIIW (ligand) [Endothelin 3] was tested, and the growth of LGG275 cells, dose-response with ET-3 (4 pM-40 nM): lowest concentration with growth inhibition was 0.4 nM.
